The text below walks through data of US20250122304A1, “PRE-TARGETING” (Precirix N.V., priority 2022, published 2025).

The target in experiment [1] is T1, human fibroblast activation protein (FAP) (human, UniProt Q12884 26-760).
T1 construct: also called human FAP; hFAP
T1 sequence: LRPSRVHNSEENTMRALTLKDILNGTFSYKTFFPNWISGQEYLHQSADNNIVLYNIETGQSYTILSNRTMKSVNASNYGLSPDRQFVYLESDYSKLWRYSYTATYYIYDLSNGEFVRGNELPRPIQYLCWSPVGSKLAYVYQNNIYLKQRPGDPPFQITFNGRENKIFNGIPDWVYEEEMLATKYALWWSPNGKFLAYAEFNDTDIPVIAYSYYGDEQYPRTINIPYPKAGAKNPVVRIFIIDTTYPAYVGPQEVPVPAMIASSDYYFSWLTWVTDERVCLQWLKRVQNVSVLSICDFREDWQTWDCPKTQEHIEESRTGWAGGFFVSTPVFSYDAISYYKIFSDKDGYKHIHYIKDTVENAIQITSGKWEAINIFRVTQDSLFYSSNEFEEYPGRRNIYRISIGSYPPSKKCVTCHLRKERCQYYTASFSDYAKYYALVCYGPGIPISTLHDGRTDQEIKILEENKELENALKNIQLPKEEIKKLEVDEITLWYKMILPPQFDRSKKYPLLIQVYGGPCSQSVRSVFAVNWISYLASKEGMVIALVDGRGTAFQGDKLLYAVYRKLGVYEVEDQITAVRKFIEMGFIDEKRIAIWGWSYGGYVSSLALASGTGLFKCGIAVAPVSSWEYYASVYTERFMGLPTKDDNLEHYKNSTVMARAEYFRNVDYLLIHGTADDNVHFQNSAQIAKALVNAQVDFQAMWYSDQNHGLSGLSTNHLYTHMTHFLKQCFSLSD
Nature of the experiment: BLI (Octet), kinetics to human FAP, post TCO conjugation. On the procedure:
(§1) Using the BLI technology on Octet system the binding kinetics towards human FAP were determined for each of the five VHHs pre- and post-TCO conjugation.
For orientation: Biolayer interferometry detects binding as a change in optical thickness at a sensor tip.

The target of another experiment is T2, human FAP (Homo sapiens, UniProt Q12884).
T2 sequence (Q12884 1-760): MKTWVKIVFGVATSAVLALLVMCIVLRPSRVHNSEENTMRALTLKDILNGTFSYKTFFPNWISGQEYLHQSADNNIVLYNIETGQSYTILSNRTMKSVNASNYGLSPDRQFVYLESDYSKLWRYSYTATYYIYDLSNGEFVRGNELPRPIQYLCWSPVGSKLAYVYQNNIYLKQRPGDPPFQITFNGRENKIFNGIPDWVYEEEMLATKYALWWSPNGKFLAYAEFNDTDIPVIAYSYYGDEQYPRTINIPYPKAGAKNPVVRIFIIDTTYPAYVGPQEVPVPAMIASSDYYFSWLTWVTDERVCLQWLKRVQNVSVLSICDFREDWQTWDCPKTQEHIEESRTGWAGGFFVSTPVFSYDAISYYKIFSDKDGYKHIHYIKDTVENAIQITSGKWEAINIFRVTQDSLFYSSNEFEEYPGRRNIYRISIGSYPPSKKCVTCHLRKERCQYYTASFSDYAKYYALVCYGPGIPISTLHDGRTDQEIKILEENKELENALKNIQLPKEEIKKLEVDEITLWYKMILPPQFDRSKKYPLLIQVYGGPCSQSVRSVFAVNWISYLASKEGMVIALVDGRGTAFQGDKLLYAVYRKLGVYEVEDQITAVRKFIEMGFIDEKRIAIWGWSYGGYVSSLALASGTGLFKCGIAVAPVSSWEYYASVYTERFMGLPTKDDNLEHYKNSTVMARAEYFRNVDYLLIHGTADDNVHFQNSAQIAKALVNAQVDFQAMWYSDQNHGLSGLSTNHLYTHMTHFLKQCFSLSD
Nature of the experiment: BLI click reaction with Tz-R3B23 on TCO-VHHs bound to target, span (Example 7, Table 18). The following applies: signal difference vs assay buffer. On the procedure:
Next, Octet Streptavidin (SA) Biosensors were coated with 5 μg/mL biotinylated human FAP in assay buffer (HBS+0.5% BSA+0.1% Tween20) for 5 minutes. The sensors were then dipped in wells containing a 5 nM solution of the different VHHs (both TCO conjugated and unconjugated as control) for 20 minutes (association step) and further transferred to the assay buffer (dissociation step) for 30 minutes. After the dissociation phase, that simulates the lag time, the sensors were transferred to either a well containing 50 nM of a tetrazine-coupled, non-FAP binding R3B23 (Tz-R3B23) or to a well containing assay buffer as a control. This reaction was allowed to proceed for 20 minutes (experiment 1) or 30 minutes (experiment 2) after which the sensors were washed for 30 minutes in assay buffer. In the second experiment the TCO-VHHs were measured in duplicate (referred to as assay 1 and 2 of ‘experiment 2’ in the table below). Using the epitope binning function of ‘Octet Analysis Software’ we then determined the difference in signal between the VHHs incubated with Tz-R3B23 and the VHHs incubated with assay buffer. […] The span of unconjugated VHHs was considered as noise.

Experiment [2] addresses T1, human fibroblast activation protein …. The experiment in a line: BLI (Octet), kinetics to human FAP, pre TCO conjugation. Here is the method:
as §1

For experiment [3], the target named is T3, human folate receptor alpha (FOLR1) (human, UniProt P15328 25-234, limits assumed).
T3 construct: also called hFOLR1; human FOLR1
T3 sequence (P15328 25-234 limits assumed): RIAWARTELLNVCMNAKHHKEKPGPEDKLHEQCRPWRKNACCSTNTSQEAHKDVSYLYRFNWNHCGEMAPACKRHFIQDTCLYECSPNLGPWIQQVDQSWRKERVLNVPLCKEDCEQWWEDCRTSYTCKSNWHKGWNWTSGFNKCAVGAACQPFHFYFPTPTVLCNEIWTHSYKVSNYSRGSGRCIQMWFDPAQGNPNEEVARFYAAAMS
Nature of the experiment: SPR (Biacore), kinetics to hFOLR1, pre TCO conjugation.

Experiment [4] has as its target T4, hFOLR1 (Homo sapiens, UniProt P15328). Nature of the experiment: SPR (Biacore) binding kinetics before and after TCO conjugation (Example 8, Table 19). The text has this: Using Surface Plasmon Resonance (Biacore) we determined the binding kinetics of the unconjugated and TCO-conjugated VHH (TCO-VHH) for the respective target as described earlier for VHH2 and VHH8 (EP3718574A1).
For orientation: SPR reads the build-up and loss of mass on a sensor chip optically.

Experiment [5] concerns the target T4, hFOLR1. The experiment in a line: SPR click reaction with Tz-R3B23, span of relative response (Example 8, Table 20). The following applies: Biacore. On the procedure:
Next, the click reaction was verified using SPR. 5 μg/mL recombinant hHER2 in 10 mM NaOAc pH 4.5 or 5 μg/mL recombinant hFOLR1 in 10 mM NaOAc pH 5.5 was immobilized on a Biacore Sensor Chip CM5 to a target level of 740 Response Units (RU) and 250 RU, respectively. […] For the VHH7 binding FOLR1 a VHH concentration of 5 nM was used, and the association and dissociation phases took 450 s and 900 s, respectively. […] As a negative control for the click reaction, we injected assay buffer (HBS) instead of the Tz-R3B23 over the flow cell. Using the Biacore evaluation software we determined the difference between the relative response before and after the click reaction with either the Tz-R3B23 or the negative control assay buffer. This difference is further on referred to as span.

For experiment [6], the target named is T3, human folate receptor alpha (FOLR1). Nature of the experiment: SPR (Biacore), kinetics to hFOLR1, post TCO conjugation.

T4 sequence (P15328 25-234): as the sequence (P15328 25-234 limits assumed) above

B1: TCO-VHH6 (VHH)
VHH: DVQLVESGGGLVQAGGSLRLSCAVSGSISSANSMGWYRQAPGKQRDVVAGLTTGGRSHYADSVKGRFTISRDNAKNTVYLQMNSLKAEDTAVYYCNLWPPVQGYWGQGTQVTVSS
modifications: trans-cyclooctene (TCO) conjugated via TCO-NHS; site(s) and number not stated
notes: also called TCO conjugated VHH6; VHH6 post conjugation
As usually defined, the Kd is the equilibrium constant for the complex coming apart. A lower Kd goes with a tighter complex. The term koff denotes the rate constant with which the complex falls apart. High values mean fast dissociation, low ones slow dissociation. A word on the kon: it is a measure of how fast the partners come together. A high value points to faster complex formation. Regarding B1, in experiment [1], the dissociation constant Kd is 0.147 nM, the koff was found to be 0.000157 s⁻¹ and the association rate constant (kon) was found to be 1.07e+06 M⁻¹ s⁻¹. In the experiment with human FAP (Experiment 1, click reaction with 50 nM Tz-R3B23 for 20 minutes), this molecule had a Span of 0.0230. Further, the Span in the experiment with human FAP (Experiment 2, 1st assay, click reaction with 50 nM Tz-R3B23 for 30 minutes) is given as 0.0287. In the experiment with human FAP (Experiment 2, 2nd assay, click reaction with 50 nM Tz-R3B23 for 30 minutes), this molecule came in with a Span of 0.0229.

B2: VHH6 (VHH)
VHH: DVQLVESGGGLVQAGGSLRLSCAVSGSISSANSMGWYRQAPGKQRDVVAGLTTGGRSHYADSVKGRFTISRDNAKNTVYLQMNSLKAEDTAVYYCNLWPPVQGYWGQGTQVTVSS
notes: Anti-FAP VHH, tested before TCO conjugation; also called unconjugated VHH6
In experiment [2], B2 had a Kd of 0.0551 nM, an off-rate constant (koff) of 0.000188 s⁻¹ and a kon of 3.41e+06 M⁻¹ s⁻¹.

B3: VHH2 (VHH)
VHH: DVQLVESGGGLVQPGGSLRLSCAASESIFSRNHMSWYRQAPGKQRELAAIITSDGNTNYPDSVKGRFTISRDNAKNTVYLQMNSLKPEDTAVYYCNTFGRSVAGFYDYWGQGTQVTVSS
notes: Anti-FOLR1 VHH, tested before TCO conjugation; also called VHH VHH2; unconjugated VHH2
Take B3: in experiment [3], the Kd is 0.047 nM, the off-rate (koff) came to 0.000167 s⁻¹ and the on-rate (kon) came out at 3.54e+06 M⁻¹ s⁻¹.

B4: VHH2: VHH, target FOLR1, SEQ ID NO 21 (protein)
VHH: DVQLVESGGGLVQPGGSLRLSCAASESIFSRNHMSWYRQAPGKQRELAAIITSDGNTNYPDSVKGRFTISRDNAKNTVYLQMNSLKPEDTAVYYCNTFGRSVAGFYDYWGQGTQVTVSS
modifications: Full length sequence of VHH2
In the case of B4, the “binding kinetics after TCO conjugation” value with hFOLR1 [4] was “barely affected”. Further, the koff amounted to 0.000192 s⁻¹ with hFOLR1 [4] (Post conjugation (TCO)) and 0.000167 s⁻¹ with hFOLR1 [4] (Pre conjugation). Further, the kon is 2.61e+06 M⁻¹ s⁻¹ in the experiment with hFOLR1 [4] (Post conjugation (TCO)) and 3.54e+06 M⁻¹ s⁻¹ with hFOLR1 [4] (Pre conjugation). Moreover, the “Span of the Relative Response” value stood at 12.3 RU with hFOLR1 [5] (TCO-VHH bound on hFOLR1, Tz-R3B23 at 100 times molar excess) and 0.6 RU in the experiment with hFOLR1 [5] (Unconjugated VHH bound on hFOLR1, Tz-R3B23 at 100 times molar excess).

B5: TCO-VHH2 (VHH)
VHH: DVQLVESGGGLVQPGGSLRLSCAASESIFSRNHMSWYRQAPGKQRELAAIITSDGNTNYPDSVKGRFTISRDNAKNTVYLQMNSLKPEDTAVYYCNTFGRSVAGFYDYWGQGTQVTVSS
modifications: trans-cyclooctene (TCO) conjugated via NHS-TCO; site(s) and number not stated
notes: also called TCO-conjugated VHH2; VHH2 post conjugation
On to B5, for which, in experiment [6], binding was characterised by a dissociation constant (Kd) of 0.0734 nM, the koff was 0.000192 s⁻¹ and the association rate constant (kon) is 2.61e+06 M⁻¹ s⁻¹.

B6: TCO-VHH1 (VHH)
VHH: DVQLVESGGGLVQPGGSLRLSCVASGRLSSSNSMAWYRQVPGKRRELVAGITGGGETNYADFVGGRFTISRDNAKNGLYLQLNGLKPEDTAAYYCNFWPPLINYWGQGTQVTVSS
modifications: trans-cyclooctene (TCO) conjugated via TCO-NHS; site(s) and number not stated
notes: also called TCO conjugated VHH1; VHH1 post conjugation
In experiment [1], B6 had a Kd of 0.0719 nM, an off-rate constant (koff) of 4.99e-05 s⁻¹ and an association rate constant (kon) of 694000 M⁻¹ s⁻¹.

B7: TCO-VHH7 (VHH)
VHH: QVQLQESGGGLVQAGGSLRLSCTASGTFSGRNAMAWYRQAPGKRRELVAGIRSDDSTNYVDSVKGRFTISRDNAKNTVYLQMNSLRPEDTAVYYCNLWPPVIGAGFGSWGQGTQVTVSS
modifications: trans-cyclooctene (TCO) conjugated via TCO-NHS; site(s) and number not stated
notes: also called TCO conjugated VHH7; VHH7 post conjugation
In experiment [1], B7 had an equilibrium dissociation constant (Kd) of 0.166 nM, a koff of 0.000123 s⁻¹ and a kon of 746000 M⁻¹ s⁻¹.

B8: TCO-VHH8 (VHH)
VHH: QVQLQESGGGTVQPGGSLRLSCAASGISVSIASMAWYRQAPGKQRELVAGIISGGSTNYADSVKGRFTISRDNAKKVVLLQMNSLKPEDTAVYYCNTYPPFVGPGATATWGQGTQVTVSS
modifications: trans-cyclooctene (TCO) conjugated via TCO-NHS; site(s) and number not stated
notes: also called TCO conjugated VHH8; VHH8 post conjugation
For B8, in experiment [1], the Kd came to 0.671 nM, the koff worked out at 0.000559 s⁻¹ and the on-rate (kon) was found to be 833000 M⁻¹ s⁻¹.

B9: VHH9 (VHH)
VHH: QVQLQESGGGLVQSGGSLRLSCVASGSISSINAMGWYRQAPGNKREWVAGITSGGSTNYADAVLGRFSIFRDNPKNTVYLQMNSLKPEDTAVYYCNTWPPSTFGSWGQGTQVTVSS
notes: Anti-FAP VHH, tested before TCO conjugation; also called unconjugated VHH9
For B9, in experiment [2], the Kd turned out to be 0.453 nM, the koff was 0.0018 s⁻¹ and the on-rate (kon) was 3.98e+06 M⁻¹ s⁻¹.

B10: TCO-VHH9 (VHH)
VHH: QVQLQESGGGLVQSGGSLRLSCVASGSISSINAMGWYRQAPGNKREWVAGITSGGSTNYADAVLGRFSIFRDNPKNTVYLQMNSLKPEDTAVYYCNTWPPSTFGSWGQGTQVTVSS
modifications: trans-cyclooctene (TCO) conjugated via TCO-NHS; site(s) and number not stated
notes: also called TCO conjugated VHH9; VHH9 post conjugation
Consider B10, for which, in experiment [1], the Kd was determined as 0.951 nM, the koff was found to be 0.0012 s⁻¹ and the kon turned out to be 1.26e+06 M⁻¹ s⁻¹.
